Among the targets are N115Q-GLP1R-V5 (human) (UniProt P43220); N63Q-GLP1R-V5 (human) (UniProt P43220); N82Q-GLP1R-V5 (human) (UniProt P43220).
The target of data set [1] is N63,82Q-GLP-1R-V5 (human) (UniProt P43220).
The target in data set [2] is N63,82,115Q-GLP-1R-V5 (human) (UniProt P43220).
Data set [3] has as its target human GLP1R with C-terminal V5 epitope (GLP1R-V5) (human) (UniProt P43220).
In data set [4] the target is T1, human GIPR with C-terminal V5 epitope (GIPR-V5) (human) (UniProt P48546).
T1 sequence: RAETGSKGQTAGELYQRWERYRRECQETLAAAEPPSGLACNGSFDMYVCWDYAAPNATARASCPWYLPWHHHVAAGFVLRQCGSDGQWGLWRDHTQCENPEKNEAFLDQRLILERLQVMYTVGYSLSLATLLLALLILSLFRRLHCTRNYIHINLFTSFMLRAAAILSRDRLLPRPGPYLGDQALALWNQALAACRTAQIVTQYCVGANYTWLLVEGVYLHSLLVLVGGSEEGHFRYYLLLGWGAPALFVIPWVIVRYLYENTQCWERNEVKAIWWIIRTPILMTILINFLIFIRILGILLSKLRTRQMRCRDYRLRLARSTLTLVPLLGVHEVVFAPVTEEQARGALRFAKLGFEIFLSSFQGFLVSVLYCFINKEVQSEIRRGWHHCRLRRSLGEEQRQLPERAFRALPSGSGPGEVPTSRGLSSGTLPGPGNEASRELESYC

For a further data set, the target named is T2, N77Q-GIPR-V5 (human) (UniProt P48546).
T2 sequence: T1 sequence with N56Q

Data set [5] has as its target T1, human GIPR with C-terminal V5 epitope (GIPR-V5) (human). This is another data set of the same source.
For another data set, the target named is T3, N62Q-GIPR-V5 (human) (UniProt P48546).
T3 sequence: T1 sequence with N41Q

Data set [6] deals with human GLP1R with C-terminal V5 epitope (GLP1R-V5) (human) (UniProt P43220). The source holds these as a separate data set.
A short description of data set [7]: cycloheximide chase western; protein remaining. The settings on record: glycan lost.
A short description of data set [8]: calnexin co-immunolabelling intensity correlation (ER retention). Conditions: glycan lost; control: wild type GLP-1R.

Numbering of substitutions follows the chain as printed.

For the molecule GLP-1 7–36 amide (ligand), the EC50 of GLP-1 for cAMP production (LANCE TR-FRET, 30 min stimulation) in CHO cells expressing the receptor with N115Q-GLP1R-V5 (human) stood at 720 pM; with N63Q-GLP1R-V5 (human) it was 630 pM; in data set [1], 580 pM; in [2], 2700 pM; with N82Q-GLP1R-V5 (human), 710 pM. For the same molecule, the EC50 of GLP-1 for cAMP production (LANCE TR-FRET, 30 min stimulation) in CHO cells expressing the receptor; series with the double and triple mutants in data set [3] came to 220 pM. The molecule also came in with an EC50 of GLP-1 for cAMP production (LANCE TR-FRET, 30 min stimulation) in CHO cells expressing the receptor; series with the single site mutants in data set [3] of 410 pM.

In [4], “GIP peptide (Glucose-dependent Insulinotropic Polypeptide) (from UniProt P09681 52-93) (ligand)” came in with an EC50 of GIP for cAMP production (LANCE TR-FRET) in CHO cells expressing the receptor; series of Figure 8A of 34 pM. The EC50 of GIP for cAMP production (LANCE TR-FRET, 30 min stimulation) in CHO cells expressing the receptor in the data set with N77Q-GIPR-V5 (human) came to 3100 pM; in data set [5], 82 pM; with N62Q-GIPR-V5 (human), 100 pM.

B1: N62,77Q-GIPR-V5 (receptor)
chain: T1 sequence with N41Q, N56Q
Take B1: in [6], the rescue of the cAMP response to GIP (LANCE TR-FRET) in CHO cells co-expressing N62,77Q-GIPR-V5 and wild type GLP1R-V5; EC50 of GIP (neither receptor alone gave a response that could be fitted) was found to be 11000 pM.

B2: GIPR (GIP receptor): glycosylation deficient GIPR (N62,77Q) (protein)
parent chain: MTTSPILQLLLRLSLCGLLLQRAETGSKGQTAGELYQRWERYRRECQETLAAAEPPSGLACNGSFDMYVCWDYAAPNATARASCPWYLPWHHHVAAGFVLRQCGSDGQWGLWRDHTQCENPEKNEAFLDQRLILERLQVMYTVGYSLSLATLLLALLILSLFRRLHCTRNYIHINLFTSFMLRAAAILSRDRLLPRPGPYLGDQALALWNQALAACRTAQIVTQYCVGANYTWLLVEGVYLHSLLVLVGGSEEGHFRYYLLLGWGAPALFVIPWVIVRYLYENTQCWERNEVKAIWWIIRTPILMTILINFLIFIRILGILLSKLRTRQMRCRDYRLRLARSTLTLVPLLGVHEVVFAPVTEEQARGALRFAKLGFEIFLSSFQGFLVSVLYCFINKEVQSEIRRGWHHCRLRRSLGEEQRQLPERAFRALPSGSGPGEVPTSRGLSSGTLPGPGNEASRELESYC
On to B2, for which the degradation_or_half_life result in [7] (control: wild type GIPR-V5) is “decreases”.

B3: GLP-1R (GLP1R): complete glycosylation-deficient mutant (N63,82,115Q) (protein)
parent chain: MAGAPGPLRLALLLLGMVGRAGPRPQGATVSLWETVQKWREYRRQCQRSLTEDPPPATDLFCNRTFDEYACWPDGEPGSFVNVSCPWYLPWASSVPQGHVYRFCTAEGLWLQKDNSSLPWRDLSECEESKRGERSSPEEQLLFLYIIYTVGYALSFSALVIASAILLGFRHLHCTRNYIHLNLFASFILRALSVFIKDAALKWMYSTAAQQHQWDGLLSYQDSLSCRLVFLLMQYCVAANYYWLLVEGVYLYTLLAFSVLSEQWIFRLYVSIGWGVPLLFVVPWGIVKYLYEDEGCWTRNSNMNYWLIIRLPILFAIGVNFLIFVRVICIVVSKLKANLMCKTDIKCRLAKSTLTLIPLLGTHEVIFAFVMDEHARGTLRFIKLFTELSFTSFQGLMVAILYCFVNNEVQLEFRKSWERWRLEHLHIQRDSSMKPLKCPTSSLSSGATAGSSMYTATCQASCS
Consider B3, for which the “localisation_or_trafficking, other: Pearson correlation” value in [8] is listed as “increases, just under 50% vs low level of correlation”.

B4: GLP-1R (GLP1R): glycosylation deficient GLP-1R (N63,82,115Q) (protein)
parent chain: B3 parent chain
As to B4, the degradation_or_half_life result in [7] (control: wild type GLP-1R-V5) is “decreases”.

These data come from article PMC3296735.
